Laboratory results from a protein production outcome set (Wang et al. 2014).

assay: label from the status in PepcDB records

**Q.** For “MTDFPTSLTSPGNRCEGCQQSQPLGFDFSFAYQPIVDLRDHSVFAHEALVRGVNGEGAGTVLGQVNDSNRYRFDQRCRTQAITLAAQLGMQSHLSINFMPNAVYRPELCIRSTLEAARAQRFPLDRLIFETLESQHVDNYRHLTNILREYREFGFKTAIDDFGSGYSGLNLLADFQPDLIKLDMALVRDVDQDRVRQAIIRAIVTMCAELGVTVIAEGIESAGERDFLSDCGIYLMQGYWFAKPAFKALAEVPAAAWNS”, which protein production is on record?
**A.** failed

**Q.** With “MTDKKDFAASEHNNNDNIHAEVVPRQGISIIWFVPFIALIFGLWLTAKVVSEQGTFITIEFDNGSGIIPNKTEIRYKGLVTGLVKKVVPSADLQRVIAEVEISKNFTDYLTENTRFWLVSADISLQGVSGLDTLISGSYITIMPDTNQEADSQDHFVALTEAPTLDMSTPGLHLTLHTDVLGSISENSPISFKQIPIGHVTGYHYKESSKKIGINIYIKPEFAHLVKENSLFYNTSGVQVTASLTGGVKVNTESLASIMAGGISVDNLSYQTELAPAKNGQTFPLHADFQSAEMGHEVELTLEWNSGIDHNAAILFQGLTIGVIESFSKIDPVSRKITATAKVNPRVVPYLTDQSQFYIVAPQISLAGLTNAKTLLTGNYLSIRPSLAGNPSNKFNVFSSKPPYKYTEPGLHLMLTSSDRSSLQIGSNVYYKQQVVGNIQAIETTAPERHLIHIHVQPKFSHYVNHSSRFYNNSGVKISANLLGVDIQAQSLQSILTGGIAFTSQNSTQESQKKLVKNGDSFSLYANNKLAEQNISFTLNYMASEHISSDTRLLYRGIEIGAIHQTKIQGNKQQLQLGLLPEYEHILKADTQFYIVKPNLSLSGASDTDALFGGTYITFNLGQGKAKNQFTLFSQPPVKLASSPGLQLSLSTDHANVATPGSAISYRGITIGQVDNVSLNKIDDEIKVNITIDEEHRGLLKSTSRFYNAGGMTISGGLSDFVVKTESIDAILRGGISFYNPEVLLPTSLITNTQVEELSNFTLFKHEEHAKDAGQTISIHFNDISGLKVNTKVIYQEQTLGTIERLIFTADKVGVTALVLLNDSGSQFARKGTKFWKIEPQIGLVGSKNVAALLDGAFIGLLPSHNVEAKLKNEFEALELAPTVEQLSYGLNIKLTTARLGSVRVGNPVLYRQIKVGKVIGIDLSATADQVNIFINIAKRYAPLVNGNSQFWNTSGINIEASIFSGINIDSESIETLIAGGIAFATPDIDENNDKEQNDETKSLPASFILHQDVDEDWLEWQPKIAINNQTTSAE” as the sequence, how does the protein production read?
**A.** failed

**Q.** With “MTDKTPWSLRSVGNPSPIEIAMMLLSLLSVIIVLVMTFGRLDKETYRLLFFIDTTICMIFMVNFFAGLFRARDKLFYLRHHWIDFIASIPAIEALRIARVFQILRVIRLIRMSRSFLIPLIKQRKQATLASLLVAMVTILTFASIIILIIESGTEGANIQTAEQAIWWALVTISTVGYGDFYPVSTAGHIVGGIVIVSGVSFFGVISGYMASVFVAPDESERQERQDAHKAEIKSELELALARMEENQRQMELNQAQMLTKIAELKQALEDKKG” as the sequence, how does the protein production read?
**A.** failed

**Q.** For “MTDNETPAEDQVGDRVAGLLLAAGGGRRLGGRPKALLEHRGHPLVEHAVEVLRTAGCARVHVVLGARAADVRARAALDGCTLVDNPDWEQGMGSSLRAGLGSLAATGARAALVCLVDQPGIGAAATARVRARFRDETSLASAAYAGVRGHPVLLGAAHWAGVAATASGDRGARAYLREHEAEIALVECGDVARPYDIDTEADLVHLELEHHHHHH”, which protein production is on record?
**A.** not failed

**Q.** With “MTDNTRLRIAMQKSGRLSDDSRELLARCGIKINLHTQRLIAMAENMPIDILRVRDDDIPGLVMDGVVDLGIIGENVLEEELLNRRAQGEDPRYFTLRRLDFGGCRLSLATPVDEAWDGPLSLNGKRIATSYPHLLKRYLDQKGISFKSCLLNGSVEVAPRAGLADAICDLVSTGATLEANGLREVEVIYRSKACLIQRDGEMEESKQQLIDKLLTRIQGVIQARESKYIMMHAPTERLDEVIALLPGAERPTILPLAGDQQRVAMHMVSSETLFWETMEKLKALGASSILVLPIEKMME” as the sequence, how does the protein production read?
**A.** not failed

**Q.** Which protein production does the source give for “MTDPVFFAPSRRYTAAEVANLTGSVLVDSGQSDVSIEALAPASEGGANALVFVDGRRNSALMPSLRAAAVLCPAEFANKAPSSVAVLIHPRPQQAFALVGRLLFPTAATPGPMTSETGVSAHAHIDPTAHVEAGAIIEAGVVIGPGVSIGSGTVIAPNAVIGQSCQIGRDGYVGPGASIQYALIGNRVIIHGGARIGQDGFGFVGGAKGPERVPQIGRVVIQDDVEIGSNSTVDRGAMSDTIIGQGTKIDNLVQIAHNVRIGRNCIVAGLSGISGSVVVGDNVTMGGGVGLADHLTIGSGAKLAARSGFMSNVPAGEIWGGYPAQPMAEAMREIAMLRTMARARKQGKDNG” here?
**A.** failed

**Q.** With “MTDRQLIVLAALNIMVAVGAGAFGAHGLRRVVDPTLLAIWHTGVLYHLIHALGLFVVALLGARFGSPLLSMAGLVMFIGILLFCGSLYVLVLTGTRWLGAVTPLGGVAFLAAWAMVAWAAWRAPA” as the sequence, how does the protein production read?
**A.** failed
